Among the data in US20210179728A1 are EC50 values, retold here.

The term EC50 denotes the concentration giving half of the maximal effect. A lower EC50 goes with greater potency.

For assay [1], the target named is SIRPa on human monocytes (human) (UniProt P78324). As to the kind of experiment: flow cytometry on human monocytes v1/v1, PE anti-human Fc; MFI [B, panel B table].
For assay [2] the target is unchanged. The assay is described as follows: flow cytometry on human monocytes v1/v1, PE anti-human Fc; percent of stained monocytes [B, panel A table].

B1: HALA (antibody, human IgG4 S228P, kappa, V domains shown)
VH: EVQLVQSGAEVKKPGESLRISCKASGYTFTSYWVHWVRQMPGKGLEWIGNIDPSDSDTHYNQKFKDHVTLSVDKSISTAYLQLSSLKASDTAMYYCVRGGTGTMAWFAYWGQGTLVTVSS
VL: DVVMTQSPLSLPVTLGQPASISCRSSQSLVHSYGNTYLYWYQQRPGQSPRLLIYRVSNRFSGVPDRFSGSGSGTDFTLKISRVEAEDVGVYFCFQGTHVPYTFGGGTKVEIKR
On to B1, for which the EC50 came to 0.59 µg/mL in assay [1] and 0.242 µg/mL in assay [2].
